Experimental data taken from the supplement of paper PMC10126150.
± gives the standard deviation of the averaged measurements.

System: ATP
Assay: switch fluorescence ratio, 500 uM ATP over buffer (Cy3 cluster intensity, sum of 5 cycles each) (fold (ratio)); higher = stronger signal-on switching upon ATP binding; sequences stand for … in TCGTCGGCAGCGTCAGATGTGTATAAGAGACAGTTTTTTTTTTTTTTTTTTTTTTTTT…TC
Conditions: aptamer strand: ATP DNA aptamer (quencher-CACCTGGGGGAGTATTGCGGAGGAAGG + anchor), 100 nM annealed; ATP concentration: 500 uM
Outline: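 Per cluster, summed Cy3 intensity from the target cycles was divided by that from the buffer cycles to give the fluorescence ratio, then averaged per switch-domain sequence. Clusters outside 100-1000 RFU were excluded. The Cy3-labelled switching-strand clusters, on a modified Illumina MiSeq flow-cell, were annealed to 100 nM quencher-labelled ATP aptamer and imaged in selection buffer, then after 15 min with 500 uM ATP at 22 °C, for five cycles with NaOH stripping and re-annealing between them.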
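Note: ATP exposure 15 min at 22 °C before imaging.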

| Sequence | switch fluorescence ratio |
| --- | --- |
| AGGCCGAGGG | 0.985 ± 0.012 |
| GGTTTTAACA | 1 ± 0.051 |
| GTTGTGCAAT | 1.16 ± 0.0012 |
| GAATCAGGGA | 1.02 ± 0.015 |
| TGGTTCGGGG | 0.96 ± 0.015 |
| TGCGGGTTAG | 0.984 ± 0.032 |
| AGAGTGGTTA | 0.9864 ± 0.0033 |
| TTTTTGGACC | 1.1 ± 0.22 |
| TTTGCGACCT | 1.13 ± 0.066 |
| ACATTATCCA | 1.01 ± 0.0068 |
| CGGAGTTAGC | 1.13 ± 0.028 |
| CCTTAATCTT | 0.987 ± 0.026 |
| AACGCCAGGC | 1.01 ± 0.028 |
| TTATGGGGGG | 1.01 ± 0.042 |
| AGCATATATG | 1.02 ± 0.015 |
| TATAATCCAG | 0.984 ± 0.024 |
| GGTTCAAGGA | 0.99 ± 0.063 |
| GGGTGAATGG | 0.9976 ± 0.0016 |
| TAATAGAATT | 1 ± 0.014 |
| ACGATCATTT | 1.048 ± 0.0024 |
| TAATCCCTTT | 1.01 ± 0.04 |
| TTTTATTACT | 2.27 ± 1.8 |
| CCGTGGGTAC | 5.55 ± 0.7 |

| Sequence | switch fluorescence ratio |
| --- | --- |
| TGGCCTAACT | 1.02 ± 0.042 |
| GGAAACAGGG | 0.964 ± 0.02 |
| AGAGGTTGTT | 0.995 ± 0.038 |
| TTGGATTCAT | 0.995 ± 0.016 |
| TTTGGAGGGG | 1.03 ± 0.039 |
| CTTGGGTTTG | 1.06 ± 0.14 |
| GGGATAATTT | 0.988 ± 0.017 |
| ATGAGGTCTC | 0.98 ± 0.046 |
| TGCGGGCTAG | 1.01 ± 0.015 |
| TCGAAGAGCG | 0.976 ± 0.045 |
| AAAGTTTTGT | 0.983 ± 0.023 |
| AAGGTCGTCG | 0.9834 ± 0.0076 |
| GTTTTTGTTA | 0.991 ± 0.036 |
| TTTTTGGCGG | 0.978 ± 0.038 |
| AAGTCTTGTT | 0.97636 ± 0.00051 |
| GCTGTTACGG | 0.983 ± 0.016 |
| CCCGGTTTAG | 1.03 ± 0.0015 |
| GTTTCTTTGG | 1.06 ± 0.13 |
| TTGGTTACGG | 1.014 ± 0.0041 |
| TTGAAAAAAT | 1.06 ± 0.13 |
| TTAAGGGACC | 1.022 ± 0.0089 |
| TGGAGAGGGG | 0.996 ± 0.05 |
| TAGGTACCAG | 0.984 ± 0.025 |

| Sequence | switch fluorescence ratio |
| --- | --- |
| GCTGTATGAG | 0.985 ± 0.029 |
| GGAAAAGAGA | 1.01 ± 0.017 |
| GGTTACTGGA | 1.02 ± 0.018 |
| GGGGTTTGAT | 0.996 ± 0.021 |
| ATCGTATATG | 0.972 ± 0.043 |
| CTTGGGGTGC | 1.07 ± 0.094 |
| AGGCTCATAG | 0.96982 ± 0.00072 |
| ATAGCAGAAG | 1.06 ± 0.012 |
| TTTTAGGAGT | 0.989 ± 0.037 |
| GGTTGCAAGC | 1.05 ± 0.017 |
| TTGCCAGTGT | 0.996 ± 0.028 |
| ATTGGGGGTA | 0.977 ± 0.028 |
| CAGAGGGGTC | 0.999 ± 0.022 |
| TAGAAATTTG | 0.998 ± 0.03 |
| GGCCGATCAT | 1.02 ± 0.04 |
| AAAGATCGTG | 0.974 ± 0.01 |
| AAGAAGGACG | 1 ± 0.033 |
| ATTAAGTGTT | 0.984 ± 0.042 |
| GGGTTTAGAA | 0.979 ± 0.049 |
| AGGGGGAAAA | 1.47 ± 0.69 |
| TACTGGGGCG | 0.997 ± 0.082 |
| AGGGGCCAGT | 0.98 ± 0.019 |
| AGAAGGCGCG | 1.01 ± 0.038 |

| Sequence | switch fluorescence ratio |
| --- | --- |
| AGGGTTTTCG | 0.972 ± 0.022 |
| AATATGTTGT | 0.98 ± 0.037 |
| TAGGCTTAGC | 0.9671 ± 0.0069 |
| GGATGAGTGC | 0.99 ± 0.023 |
| TTCGGTGTTT | 1.02 ± 0.022 |
| CGAATGGGGG | 1 ± 0.029 |
| AAGAAGTTTG | 0.9879 ± 0.0049 |
| TACTGAATTA | 1.03 ± 0.03 |
| TATAAGAGAA | 0.972 ± 0.031 |
| TAGATATGGT | 0.989 ± 0.021 |
| ATGGGGGAAA | 0.991 ± 0.011 |
| AGTGGTGTCT | 1.01 ± 0.033 |
| CATGTAGCGT | 1 ± 0.027 |
| ATGAACGTTT | 1.2 ± 0.28 |
| GGGTTTTTGT | 1.04 ± 0.055 |
| ATGGCAGGCA | 0.9929 ± 0.0054 |
| TAGATTTCGT | 0.9797 ± 0.0052 |
| TTCCTTGGGA | 0.984 ± 0.014 |
| GATGCGCCGG | 1.03 ± 0.034 |
| CGGCAGTTCG | 0.979 ± 0.014 |
| ATCAAAGCGG | 0.998 ± 0.0094 |
| ATTTTTACGG | 1.01 ± 0.013 |
| ATTCTAGGA | 0.985 ± 0.02 |

| Sequence | switch fluorescence ratio |
| --- | --- |
| TTGGAGGAAT | 1.02 ± 0.014 |
| TTGCAGTTC | 1.88 ± 1 |
| CGACTGGGAG | 0.981 ± 0.026 |
| TTGCTTACTT | 0.996 ± 0.019 |
| TATAATAGAA | 0.983 ± 0.027 |
| ATGAGTTCTC | 1 ± 0.042 |
| TAAGTTTTCA | 1.02 ± 0.023 |
| GCTATTGGAA | 0.993 ± 0.022 |
| TAATTACAGT | 0.9904 ± 0.0021 |
| CTGTTTCCGA | 1.03 ± 0.052 |
| ACTGCGAATA | 1.41 ± 0.021 |
| GTGTGTAGGG | 0.999 ± 0.039 |
| TAGCTTTTTT | 1.002 ± 0.0045 |
| AGGGCCAGGT | 1.11 ± 0.023 |
| GCAAAGTGGG | 0.9909 ± 0.0077 |
| TTCTGGCACG | 1.12 ± 0.18 |
| CTTGTGGCTT | 1.034 ± 0.0061 |
| CTTTATTCGT | 0.9896 ± 0.0096 |
| ACCTTATATA | 1.056 ± 0.0094 |
| AATTTGTATG | 0.991 ± 0.028 |
| TTTAAGTGGT | 0.998 ± 0.018 |
| GGTCGTAGAT | 1.01 ± 0.036 |
| AGTGTATTGA | 1 ± 0.036 |

| Sequence | switch fluorescence ratio |
| --- | --- |
| TTTTTTGGCT | 0.995 ± 0.025 |
| AGGAGTGGTG | 0.994 ± 0.034 |
| ACCTTCGTTG | 1.22 ± 0.003 |
| GACAAAAGGT | 1.03 ± 0.013 |
| CCAGAGACCG | 1.04 ± 0.012 |
| TACTAGGGGA | 1.004 ± 0.0034 |
| CAAGGGCCCA | 0.994 ± 0.014 |
| CGCTATGTTT | 1.02 ± 0.019 |
| GGGTTAATGG | 0.986 ± 0.011 |
| TGTAAATACA | 1.15 ± 0.18 |
| TTGTGAGTGG | 0.976 ± 0.017 |
| TCGAAACGGG | 1.14 ± 0.24 |
| GTTAGTGGCA | 0.984 ± 0.012 |
| CGAGGGGGAT | 1.19 ± 0.27 |
| TTCGTATATA | 1.01 ± 0.018 |
| GAAGGGGACG | 1.006 ± 0.0085 |
| AGAAGTGATA | 0.976 ± 0.023 |
| TTTTTCACTA | 1.03 ± 0.033 |
| GTCCACCTAC | 1.38 ± 0.015 |
| TGAAAAAAGA | 0.988 ± 0.019 |
| CCAGATTTTA | 0.992 ± 0.015 |
| AATGCGCATC | 1.05 ± 0.023 |
| CGCATTTGGT | 1.07 ± 0.036 |

| Sequence | switch fluorescence ratio |
| --- | --- |
| AGAGGCCAAC | 1.002 ± 0.0062 |
| GGGGGGCCCT | 0.996 ± 0.028 |
| CGCCAGCAGA | 1.33 ± 0.14 |
| AAGGGACGGG | 1.01 ± 0.027 |
| GTGCTTTTTT | 0.993 ± 0.013 |
| TTTACGATTG | 1.03 ± 0.029 |
| ATTCACGGGC | 1.08 ± 0.035 |
| CGGGCTTAAA | 1 ± 0.018 |
| ACATAAGAGG | 1.05 ± 0.013 |
| CCGGGGTCGG | 1.04 ± 0.057 |
| ACTAGACTAG | 0.984 ± 0.044 |
| CGAAGCTAGG | 2.16 ± 0.21 |
| TGGGGGATTA | 0.999 ± 0.021 |
| TTTAGGGGGA | 1.01 ± 0.044 |
| TTGAGGGGGC | 1.01 ± 0.05 |
| TAGGGGCGGG | 0.971 ± 0.025 |
| TATGCATGGA | 1.009 ± 0.0082 |
| AAGATGTAGG | 1.025 ± 0.0086 |
| AATCTGTCCT | 1.04 ± 0.027 |
